Data taken from the supplement of paper PMC11246515.
± gives the standard deviation of the averaged measurements.

Assay: total protein half-life in vivo (active degradation + dilution); higher = more stable protein
[1] = E. coli NCM3722 delta-clpP delta-lon delta-hslV, growth: N-lim chemostat, doubling time 6 h
[2] = E. coli NCM3722 delta-hslV, growth: N-lim chemostat, doubling time 6 h
[3] = E. coli NCM3722 delta-smpB, growth: N-lim chemostat, doubling time 6 h
[4] = wild type E. coli NCM3722, growth: C-lim chemostat, doubling time 3 h
[5] = wild type E. coli NCM3722, growth: C-lim chemostat, doubling time 6 h
[6] = wild type E. coli NCM3722, growth: C-lim chemostat, doubling time 12 h
[7] = wild type E. coli NCM3722, growth: N-lim chemostat, doubling time 12 h
[8] = wild type E. coli NCM3722, growth: P-lim chemostat, doubling time 6 h
[9] = wild type E. coli NCM3722, growth: P-lim chemostat, doubling time 12 h
[10] = E. coli NCM3722 delta-clpP, growth: N-lim chemostat, doubling time 6 h
[11] = E. coli NCM3722 delta-lon, growth: N-lim chemostat, doubling time 6 h
[12] = wild type E. coli NCM3722, growth: N-lim chemostat, doubling time 6 h

Sequence | total protein half-life in vivo [1] [h] | total protein half-life in vivo [2] [h] | total protein half-life in vivo [3] [h] | total protein half-life in vivo [4] [h] | total protein half-life in vivo [5] [h] | total protein half-life in vivo [6] [h] | total protein half-life in vivo [7] [h] | total protein half-life in vivo [8] [h] | total protein half-life in vivo [9] [h] | total protein half-life in vivo [10] [h] | total protein half-life in vivo [11] [h] | total protein half-life in vivo [12] [h]
MDFSLTEEQELLLASIRELITTNFPEEYFRTCDQNGTYPREFMRALADNGISMLGVPEEFGGIPADYVTQMLALMEVSKCGAPAFLITNGQCIHSMRRFGSAEQLRKTAESTLETGDPAYALALTEPGAGSDNNSATTTYTRKNGKVYINGQKTFITGAKEYPYMLVLARDPQPKDPKKAFTLWWVDSSKPGIKINPLHKIGWHMLSTCEVYLDNVEVEESDMVGEEGMGFLNVMYNFEMERLINAARSTGFAECAFEDAARYANQRIAFGKPIGHNQMIQEKLALMAIKIDNMRNMVLKVAWQADQHQSLRTSAALAKLYCARTAMEVIDDAIQIMGGLGYTDEARVSRFWRDVRCERIGGGTDEIMIYVAGRQILKDYQNK [P0A9U8] | 6.36 ± 0.59 | 1.41 | 1.03 | 2.23 | > 8 | 2.25 | 2.165 ± 0.02 | 0.772 | 2.42 |  |  | 
MKPVTLYDVAEYAGVSYQTVSRVVNQASHVSAKTREKVEAAMAELNYIPNRVAQQLAGKQSLLIGVATSSLALHAPSQIVAAIKSRADQLGASVVVSMVERSGVEACKAAVHNLLAQRVSGLIINYPLDDQDAIAVEAACTNVPALFLDVSDQTPINSIIFSHEDGTRLGVEHLVALGHQQIALLAGPLSSVSARLRLAGWHKYLTRNQIQPIAEREGDWSAMSGFQQTMQMLNEGIVPTAMLVANDQMALGAMRAITESGLRVGADISVVGYDDTEDSSCYIPPLTTIKQDFRLLGQTSVDRLLQLSQGQAVKGNQLLPVSLVKRKTTLAPNTQTASPRALADSLMQLARQVSRLESGQ | 5.83 ± 0.72 | 4.55 ± 0.067 | 4.13 ± 0.042 | 2.96 ± 0.24 | 5.81 ± 0.66 | 7.63 ± 1.8 | 7.759 ± 0.077 | 4.77 ± 0.2 | 10.5 ± 0.49 | 5.64 ± 0.41 | 4.85 ± 0.15 | 5.01 ± 0.34
MVAPIPAKRGRKPAVATAPATGQVQSLTRGLKLLEWIAESNGSVALTELAQQAGLPNSTTHRLLTTMQQQGFVRQVGELGHWAIGAHAFMVGSSFLQSRNLLAIVHPILRNLMEESGETVNMAVLDQSDHEAIIIDQVQCTHLMRMSAPIGGKLPMHASGAGKAFLAQLSEEQVTKLLHRKGLHAYTHATLVSPVHLKEDLAQTRKRGYSFDDEEHALGLRCLAACIFDEHREPFAAISISGPISRITDDRVTEFGAMVIKAAKEVTLAYGGMR | 5.87 ± 0.33 | 5.33 ± 0.38 | 5.348 ± 0.028 | 2.89 ± 0.17 | 5.43 ± 0.46 | 9.91 ± 0.97 | 9.96 ± 1.1 | 4.91 ± 0.12 | 9.56 ± 0.21 | 5.93 ± 0.11 | 5.45 ± 0.43 | 5.51 ± 0.18
MARKTKPLTDTEIKAAKPKDADYQLYDGDGLTLLIKSSGSKLWQFRYYRPLTKQRTKQSFGAYPAVSLSDARKLRAESKVLLAKDIDPQEHQKEQVRNSQEAKTNTFLLVAERWWNVKKTSVTEDYADDIWRSLERDIFPAIGDISITEIKAHTLVKAVQPVQARGALETVRRLCQRINEVMIYAQNTGLIDAVPSVNIGKAFEKPQKKNMPSIRPDQLPQLMHTMRTASISMSTRCLFMWQLLTITRPAEAAEARWDEIDFNASEWKIPAARMKMNRDHTVPLSDGALAILEMMKPLSGGREFIFPSRIKPNQPMNSQTVNAALKRAGLGGVLVSHGLRSIASTALNEEGFPPDVIEAALAHVDKNEVRRAYNRSDYLEQRRPMMQWWADLVKAADSGSIVLTHLSKIRLVG | 5.38 ± 0.81 | 0.734 ± 0.064 | 0.777 ± 0.0083 | 1.16 ± 0.22 | 1.13 ± 0.079 | 0.594 | 0.847 | 0.572 | 1.64 ± 0.32 |  | 1.362 ± 0.0065 | 1.7 ± 0.26
MLDTNMKTQLKAYLEKLTKPVELIATLDDSAKSAEIKELLAEIAELSDKVTFKEDNSLPVRKPSFLITNPGSNQGPRFAGSPLGHEFTSLVLALLWTGGHPSKEAQSLLEQIRHIDGDFEFETYYSLSCHNCPDVVQALNLMSVLNPRIKHTAIDGGTFQNEITDRNVMGVPAVFVNGKEFGQGRMTLTEIVAKIDTGAEKRAAEELNKRDAYDVLIVGSGPAGAAAAIYSARKGIRTGLMGERFGGQILDTVDIENYISVPKTEGQKLAGALKVHVDEYDVDVIDSQSASKLIPAAVEGGLHQIETASGAVLKARSIIVATGAKWRNMNVPGEDQYRTKGVTYCPHCDGPLFKGKRVAVIGGGNSGVEAAIDLAGIVEHVTLLEFAPEMKADQVLQDKLRSLKNVDIILNAQTTEVKGDGSKVVGLEYRDRVSGDIHNIELAGIFVQIGLLPNTNWLEGAVERNRMGEIIIDAKCETNVKGVFAAGDCTTVPYKQIIIATGEGAKASLSAFDYLIRTKTA | 3.63 ± 0.29 | 2.67 ± 0.26 | 2.68 ± 0.052 | 2.949 ± 0.0042 | 4.6889 ± 0.00064 | 7.3 ± 0.34 | 3.37 ± 0.05 | 5.26 ± 0.2 | 9.723 ± 0.068 | 2.59 ± 0.18 | 2.81 ± 0.1 | 2.56 ± 0.047
MSWQEKINAALDARRAADALRRRYPVAQGAGRWLVADDRQYLNFSSNDYLGLSHHPQIIRAWQQGAEQFGIGSGGSGHVSGYSVVHQALEEELAEWLGYSRALLFISGFAANQAVIAAMMAKEDRIAADRLSHASLLEAASLSPSQLRRFAHNDVTHLARLLASPCPGQQMVVTEGVFSMDGDSAPLAEIQQVTQQHNGWLMVDDAHGTGVIGEQGRGSCWLQKVKPELLVVTFGKGFGVSGAAVLCSSTVADYLLQFARHLIYSTSMPPAQAQALRASLAVIRSDEGDARREKLAALITRFRAGVQDLPFTLADSCSAIQPLIVGDNSRALQLAEKLRQQGCWVTAIRPPTVPAGTARLRLTLTAAHEMQDIDRLLEVLHGNG | 4.06 ± 0.98 | 3.29 ± 0.14 | 3.54 ± 0.15 | 3.07 ± 0.22 | 5.16 ± 0.21 | 8.97 ± 0.33 | 5.24 ± 0.38 | 5.643 ± 0.044 | 10.9 ± 0.2 | 3.57 ± 0.11 | 3.88 ± 0.17 | 3.58 ± 0.21
MSGDILQTPDAPKPQGALDNYFKITARGSTVRQEVLAGLTTFLAMVYSVIVVPGMLGKAGFPPAAVFVATCLVAGFGSLLMGLWANLPMAIGCAISLTAFTAFSLVLGQQISVPVALGAVFLMGVIFTAISVTGVRTWILRNLPMGIAHGTGIGIGLFLLLIAANGVGMVIKNPIEGLPVALGAFTSFPVMMSLLGLAVIFGLEKCRVPGGILLVIIAISIIGLIFDPAVKYHGLVAMPSLTGEDGKSLIFSLDIMGALQPTVLPSVLALVMTAVFDATGTIRAVAGQANLLDKDNQIINGGKALTSDSVSSIFSGLVGAAPAAVYIESAAGTAAGGKTGLTATVVGALFLLILFLSPLSFLIPGYATAPALMYVGLLMLSNVSKLDFNDFIDAMAGLVCAVFIVLTCNIVTGIMLGFVTLVVGRVFAREWQKLNIGTVIITAALVAFYAGGWAI | 4.51 ± 0.38 | 5.05 | 4.98 ± 0.49 | 3.28 ± 0.56 | 4.99 ± 0.19 |  | 9.21 ± 0.52 | > 8 | 9.89 ± 0.52 | 5.04 ± 0.2 | 4.88 | 4.98
MALAMKVISQVEAQRKILEEAVSTALELASGKSDGAEVAVSKTTGISVSTRYGEVENVEFNSDGALGITVYHQNRKGSASSTDLSPQAIARTVQAALDIARYTSPDPCAGVADKELLAFDAPDLDLFHPAEVSPDEAIELAARAEQAALQADKRITNTEGGSFNSHYGVKVFGNSHGMLQGYCSTRHSLSSCVIAEENGDMERDYAYTIGRAMSDLQTPEWVGADCARRTLSRLSPRKLSTMKAPVIFANEVATGLFGHLVGAIAGGSVYRKSTFLLDSLGKQILPDWLTIEEHPHLLKGLASTPFDSEGVRTERRDIIKDGILTQWLLTSYSARKLGLKSTGHAGGIHNWRIAGQGLSFEQMLKEMGTGLVVTELMGQGVSAITGDYSRGAAGFWVENGEIQYPVSEITIAGNLKDMWRNIVTVGNDIETRSNIQCGSVLLPEMKIAGQ [P0AFK0] | 4.58 ± 0.36 | 4.07 ± 0.065 | 4.12 ± 0.032 | 3.39 ± 0.57 | 5.59 ± 0.52 | 9.13 ± 0.67 | 6.45 ± 0.34 | 5.5 ± 0.28 | 10.09 ± 0.033 | 4.28 ± 0.05 | 4.34 ± 0.1 | 4.27 ± 0.28
MKFELDTTDGRARRGRLVFDRGVVETPCFMPVGTYGTVKGMTPEEVEATGAQIILGNTFHLWLRPGQEIMKLHGDLHDFMQWKGPILTDSGGFQVFSLGDIRKITEQGVHFRNPINGDPIFLDPEKSMEIQYDLGSDIVMIFDECTPYPADWDYAKRSMEMSLRWAKRSRERFDSLGNKNALFGIIQGSVYEDLRDISVKGLVDIGFDGYAVGGLAVGEPKADMHRILEHVCPQIPADKPRYLMGVGKPEDLVEGVRRGIDMFDCVMPTRNARNGHLFVTDGVVKIRNAKYKSDTGPLDPECDCYTCRNYSRAYLHHLDRCNEILGARLNTIHNLRYYQRLMAGLRKAIEEGKLESFVTDFYQRQGREVPPLNVD [P0A847] | 5.511 ± 0.011 | 4.74 ± 0.42 | 4.12 ± 0.42 | 3.176 ± 0.02 | 6.4 ± 0.068 | 10.9 ± 0.33 | 9.05 ± 0.3 | 6.03 ± 0.7 | 13.7 ± 1.2 | 5.15 ± 0.27 |  | 5.08 ± 0.26
MHLITQKALKDAAEKYPQHKTELVALGNTIAKGYFKKPESLKAVFPSLDNFKYLDKHYVFNVGGNELRVVAMVFFESQKCYIREVMTHKEYDFFTAVHRTKGKK |  |  |  |  |  |  |  | 6.72 | 10.1 ± 0.64 |  |  | 
